Results taken from patent publication US8586570.

B1: PKCζ (enzyme, UniProt Q05513 1-592, looked up, species assumed)
Protein kinase C zeta type: MPSRTGPKMEGSGGRVRLKAHYGGDIFITSVDAATTFEELCEEVRDMCRLHQQHPLTLKWVDSEGDPCTVSSQMELEEAFRLARQCRDEGLIIHVFPSTPEQPGLPCPGEDKSIYRRGARRWRKLYRANGHLFQAKRFNRRAYCGQCSERIWGLARQGYRCINCKLLVHKRCHGLVPLTCRKHMDSVMPSQEPPVDDKNEDADLPSEETDGIAYISSSRKHDSIKDDSEDLKPVIDGMDGIKISQGLGLQDFDLIRVIGRGSYAKVLLVRLKKNDQIYAMKVVKKELVHDDEDIDWVQTEKHVFEQASSNPFLVGLHSCFQTTSRLFLVIEYVNGGDLMFHMQRQRKLPEEHARFYAAEICIALNFLHERGIIYRDLKLDNVLLDADGHIKLTDYGMCKEGLGPGDTTSTFCGTPNYIAPEILRGEEYGFSVDWWALGVLMFEMMAGRSPFDIITDNPDMNTEDYLFQVILEKPIRIPRFLSVKASHVLKGFLNKDPKERLGCRPQTGFSDIKSHAFFRSIDWDLLEKKQALPPFQPQITDDYGLDNFDTQFTSEPVQLTPDDEDAIKRIDQSEFEGFEYINPLLLSTEESV
B2: PKCµ (enzyme, UniProt Q15139 1-912, looked up, species assumed)
Serine/threonine-protein kinase D1: MSAPPVLRPPSPLLPVAAAAAAAAAALVPGSGPGPAPFLAPVAAPVGGISFHLQIGLSREPVLLLQDSSGDYSLAHVREMACSIVDQKFPECGFYGMYDKILLFRHDPTSENILQLVKAASDIQEGDLIEVVLSASATFEDFQIRPHALFVHSYRAPAFCDHCGEMLWGLVRQGLKCEGCGLNYHKRCAFKIPNNCSGVRRRRLSNVSLTGVSTIRTSSAELSTSAPDEPLLQKSPSESFIGREKRSNSQSYIGRPIHLDKILMSKVKVPHTFVIHSYTRPTVCQYCKKLLKGLFRQGLQCKDCRFNCHKRCAPKVPNNCLGEVTINGDLLSPGAESDVVMEEGSDDNDSERNSGLMDDMEEAMVQDAEMAMAECQNDSGEMQDPDPDHEDANRTISPSTSNNIPLMRVVQSVKHTKRKSSTVMKEGWMVHYTSKDTLRKRHYWRLDSKCITLFQNDTGSRYYKEIPLSEILSLEPVKTSALIPNGANPHCFEITTANVVYYVGENVVNPSSPSPNNSVLTSGVGADVARMWEIAIQHALMPVIPKGSSVGTGTNLHRDISVSISVSNCQIQENVDISTVYQIFPDEVLGSGQFGIVYGGKHRKTGRDVAIKIIDKLRFPTKQESQLRNEVAILQNLHHPGVVNLECMFETPERVFVVMEKLHGDMLEMILSSEKGRLPEHITKFLITQILVALRHLHFKNIVHCDLKPENVLLASADPFPQVKLCDFGFARIIGEKSFRRSVVGTPAYLAPEVLRNKGYNRSLDMWSVGVIIYVSLSGTFPFNEDEDIHDQIQNAAFMYPPNPWKEISHEAIDLINNLLQVKMRKRYSVDKTLSHPWLQDYQTWLDLRELECKIGERYITHESDDLRWEKYAGEQGLQYPTHLINPSASHSDTPETEETEMKALGERVSIL
B3: PKCν (enzyme, UniProt O94806 1-890, looked up, species assumed)
Serine/threonine-protein kinase D3: MSANNSPPSAQKSVLPTAIPAVLPAASPCSSPKTGLSARLSNGSFSAPSLTNSRGSVHTVSFLLQIGLTRESVTIEAQELSLSAVKDLVCSIVYQKFPECGFFGMYDKILLFRHDMNSENILQLITSADEIHEGDLVEVVLSALATVEDFQIRPHTLYVHSYKAPTFCDYCGEMLWGLVRQGLKCEGCGLNYHKRCAFKIPNNCSGVRKRRLSNVSLPGPGLSVPRPLQPEYVALPSEESHVHQEPSKRIPSWSGRPIWMEKMVMCRVKVPHTFAVHSYTRPTICQYCKRLLKGLFRQGMQCKDCKFNCHKRCASKVPRDCLGEVTFNGEPSSLGTDTDIPMDIDNNDINSDSSRGLDDTEEPSPPEDKMFFLDPSDLDVERDEEAVKTISPSTSNNIPLMRVVQSIKHTKRKSSTMVKEGWMVHYTSRDNLRKRHYWRLDSKCLTLFQNESGSKYYKEIPLSEILRISSPRDFTNISQGSNPHCFEIITDTMVYFVGENNGDSSHNPVLAATGVGLDVAQSWEKAIRQALMPVTPQASVCTSPGQGKDHKDLSTSISVSNCQIQENVDISTVYQIFADEVLGSGQFGIVYGGKHRKTGRDVAIKVIDKMRFPTKQESQLRNEVAILQNLHHPGIVNLECMFETPERVFVVMEKLHGDMLEMILSSEKSRLPERITKFMVTQILVALRNLHFKNIVHCDLKPENVLLASAEPFPQVKLCDFGFARIIGEKSFRRSVVGTPAYLAPEVLRSKGYNRSLDMWSVGVIIYVSLSGTFPFNEDEDINDQIQNAAFMYPPNPWREISGEAIDLINNLLQVKMRKRYSVDKSLSHPWLQDYQTWLDLREFETRIGERYITHESDDARWEIHAYTHNLVYPKHFIMAPNPDDMEEDP
B4: PKCι (enzyme, UniProt P41743 2-596, looked up, species assumed)
Protein kinase C iota type: PTQRDSSTMSHTVAGGGSGDHSHQVRVKAYYRGDIMITHFEPSISFEGLCNEVRDMCSFDNEQLFTMKWIDEEGDPCTVSSQLELEEAFRLYELNKDSELLIHVFPCVPERPGMPCPGEDKSIYRRGARRWRKLYCANGHTFQAKRFNRRAHCAICTDRIWGLGRQGYKCINCKLLVHKKCHKLVTIECGRHSLPQEPVMPMDQSSMHSDHAQTVIPYNPSSHESLDQVGEEKEAMNTRESGKASSSLGLQDFDLLRVIGRGSYAKVLLVRLKKTDRIYAMKVVKKELVNDDEDIDWVQTEKHVFEQASNHPFLVGLHSCFQTESRLFFVIEYVNGGDLMFHMQRQRKLPEEHARFYSAEISLALNYLHERGIIYRDLKLDNVLLDSEGHIKLTDYGMCKEGLRPGDTTSTFCGTPNYIAPEILRGEDYGFSVDWWALGVLMFEMMAGRSPFDIVGSSDNPDQNTEDYLFQVILEKQIRIPRSLSVKAASVLKSFLNKDPKERLGCHPQTGFADIQGHPFFRNVDWDMMEQKQVVPPFKPNISGEFGLDNFDSQFTNEPVQLTPDDDDIVRKIDQSEFEGFEYINPLLMSAEECV

Test system: PKCα-S10

| Protein | phosphorylation activity (1 µM peptide, 2 ng kinase) |
| --- | --- |
| B1 | very little activity is detected with PKCε, PKCζ, PKCη and PKCι |
| B2 | no activity is observed with PKCδ, PKCµ, and PKCν |
| B3 | no activity is observed with PKCδ, PKCµ, and PKCν |
| B4 | very little activity is detected with PKCε, PKCζ, PKCη and PKCι |
